The record followed here is patent US20230242640A1 (OSE IMMUNOTHERAPEUTICS, published 2023).

The target in one assay is T1, protein SIRPb-His (human, UniProt Q5TFQ8 30-371).
T1 construct: The methods give no supplier for SIRPb-His; also called hSIRPb-his
The assay is described as follows: ELISA on coated SIRPb-His. The source says: FIG. 2. Binding on SIRPg, SIRPa and SIRPb ELISA assay (protein SIRPa/b/g-His coated and anti-human peroxidase detection). Binding analysis of antibodies A1, A5 and A8, and prior art antibody Kwar23.

Assay [1] deals with T2, recombinant hSIRPg-His (Sino Biologicals reference 11828-H08H) (human, UniProt Q9P1W8 29-360).
T2 construct: Bought protein; also called protein SIRPg-His; SIRP-gamma
T2 sequence (Q9P1W8 29-360): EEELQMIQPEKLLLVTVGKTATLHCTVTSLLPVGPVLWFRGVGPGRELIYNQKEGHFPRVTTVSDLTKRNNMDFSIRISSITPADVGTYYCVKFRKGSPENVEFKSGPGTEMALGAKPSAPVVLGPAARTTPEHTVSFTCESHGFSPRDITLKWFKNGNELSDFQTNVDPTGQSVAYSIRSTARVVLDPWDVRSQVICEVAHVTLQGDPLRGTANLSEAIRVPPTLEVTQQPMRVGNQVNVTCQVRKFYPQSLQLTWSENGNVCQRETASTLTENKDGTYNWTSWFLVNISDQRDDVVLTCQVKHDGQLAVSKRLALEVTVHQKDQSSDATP
The assay is described as follows: ELISA on coated SIRPg-His. How it is done: For activity ELISA assay, recombinant hSIRPg (Sino Biologicals, Beijing, China; reference 11828-H08H) or hSIRPa (Sino Biologicals, Beijing, China; reference 11612-H08H) was immobilized on plastic at 1 µg/ml (hSIRPg) or 0.5 µg/ml (hSIRPa) in carbonate buffer (pH9.2) and purified antibody were added to measure binding.
For orientation: In an ELISA, binding on a coated surface is turned into a signal by an enzyme label.

T1 sequence (Q5TFQ8 30-371): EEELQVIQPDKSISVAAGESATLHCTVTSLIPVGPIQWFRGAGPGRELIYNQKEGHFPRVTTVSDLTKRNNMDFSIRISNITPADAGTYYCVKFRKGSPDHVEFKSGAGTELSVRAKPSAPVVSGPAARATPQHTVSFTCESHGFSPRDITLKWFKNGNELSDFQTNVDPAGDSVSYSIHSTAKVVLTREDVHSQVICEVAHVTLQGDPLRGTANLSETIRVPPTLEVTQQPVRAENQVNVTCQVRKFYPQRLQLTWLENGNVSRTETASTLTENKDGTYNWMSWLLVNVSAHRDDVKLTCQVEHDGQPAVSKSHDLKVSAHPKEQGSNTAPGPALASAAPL

B1: anti-SIRPg antibody A1 (antibody, human IgG4 S228P, kappa, V domains shown)
VH: EVQLVESGGGVVRPGGSLRLSCAASGFTFDDYGMSWVRQAPGKGLEWVSGINWNGGSTGYADSVKGRFTISRDNAKNSLYLQMNSLRAEDTAVYYCARWIAKVWGQGTLVTVSR
VL: SSELTQDPAVSVALGQTVRITCQGDSLRSYYASWYQQKPGQAPVLVIYGKNNRPSGIPDRFSGSSSGNTASLTITGAQAEDEADYYCNSRDSSGNHVVFGGGTKLTVLR
notes: human IgG4 S228P, kappa constant; also called VHA1-hFcG4 + VL-CLkappa
B1: the binding result with protein SIRPb-His is on record as “no binding”; in assay [1], “binds”.

B2: anti-SIRPg antibody A8 (antibody, human IgG4 S228P, kappa, V domains shown)
VH: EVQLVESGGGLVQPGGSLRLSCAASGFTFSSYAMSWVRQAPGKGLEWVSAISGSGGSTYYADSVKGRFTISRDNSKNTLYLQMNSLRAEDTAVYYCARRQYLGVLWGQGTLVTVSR
VL: SSELTQDPAVSVALGQTVRITCQGDSLRSYYASWYQQKPGQAPVLVIYGKNNRPSGIPDRFSGSSSGNTASLTITGAQAEDEADYYCNSRDSSGNHVVFGGGTKLTVLR
notes: human IgG4 S228P, kappa constant; also called VHA8-hFcG4 + VL-CLkappa
Take B2: the figures for the binding result (with protein SIRPb-His; in assay [1]) were “no binding” and “binds”, respectively.

B3: anti-SIRPg antibody A5 (antibody, human IgG4 S228P, kappa, V domains shown)
VH: EVQLVESGGGVVRPGGSLRLSCAASGFTFDDYGMSWVRQAPGKGLEWVSGINWNGGSTGYADSVKGRFTISRDNAKNSLYLQMNSLRAEDTAVYYCARQMVKLWGQGTLVTVSR
VL: SSELTQDPAVSVALGQTVRITCQGDSLRSYYASWYQQKPGQAPVLVIYGKNNRPSGIPDRFSGSSSGNTASLTITGAQAEDEADYYCNSRDSSGNHVVFGGGTKLTVLR
notes: human IgG4 S228P, kappa constant; also called VHA5-hFcG4 + VL-CLkappa
Consider B3, for which the binding result with protein SIRPb-His is “no binding”; in assay [1], “binds”.
